First the molecules themselves.
B2: HrpN (harpin) of Erwinia amylovora, full-length, yeast two-hybrid construct (other)
chain: MSLNTSGLGASTMQISIGGAGGNNGLLGTSRQNAGLGGNSALGLGGGNQNDTVNQLAGLLTGMMMMMSMMGGGGLMGGGLGGGLGNGLGGSGGLGEGLSNALNDMLGGSLNTLGSKGGNNTTSTTNSPLDQALGINSTSQNDDSTSGTDSTSDSSDPMQQLLKMFSEIMQSLFGDGQDGTQGSSSGGKQPTEGEQNAYKKGVTDALSGLMGNGLSQLLGNGGLGGGQGGNAGTGLDGSSLGGKGLQNLSGPVDYQQLGNAVGTGIGMKAGIQALNDIGTHSDSSTRSFVNKGDRAMAKEIGQFMDQYPEVFGKPQYQKGPGQEVKTDDKSWAKALSKPDDDGMTPASMEQFNKAKGMIKSAMAGDTGNGNLQARGAGGSSLGIDAMMAGDAINNMALGKLGAA
notes: also called pGilda-hrpN; full-length HrpN protein

Data set [1] deals with AtHIPM, endogenous protein in Arabidopsis thaliana ecotype Columbia plants (Arabidopsis thaliana). Description: cell-based or functional assay.
Data set [2] concerns the molecule itself. The data set can be described thus: yeast two-hybrid (LexA system), self-interaction.
The target of data set [3] is B2. The data set can be described thus: yeast two-hybrid (LexA system), growth with or without leucine.
Data set [4] concerns the target T1, LexA-lamin (UniProt P02545 66-230).
T1 construct: not shown: LexA part of the fusion
T1 sequence: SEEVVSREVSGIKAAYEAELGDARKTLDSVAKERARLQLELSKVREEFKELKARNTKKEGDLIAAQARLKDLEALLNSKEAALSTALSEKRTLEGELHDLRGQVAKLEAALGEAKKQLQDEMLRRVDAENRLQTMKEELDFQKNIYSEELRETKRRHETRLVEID
Description: yeast two-hybrid (LexA system), growth without leucine.

Data set [5] addresses T2, HrpN-4, truncated derivative of HrpN spanning residues 1-198 (Erwinia amylovora, UniProt Q01099 1-198).
T2 construct: Cloned in pGilda (LexA fusion, bait)
T2 sequence (looked up): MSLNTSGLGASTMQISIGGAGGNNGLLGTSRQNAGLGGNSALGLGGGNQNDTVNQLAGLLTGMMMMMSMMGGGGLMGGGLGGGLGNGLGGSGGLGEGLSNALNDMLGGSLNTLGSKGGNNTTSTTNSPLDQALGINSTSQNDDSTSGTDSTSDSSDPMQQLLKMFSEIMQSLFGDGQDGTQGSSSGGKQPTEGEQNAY
The data set can be described thus: yeast two-hybrid, HrpN deletions in pGilda against pB42AD-HIPM.
Description: Transformants were selected on minimal synthetic dropout (“SD”) medium containing glucose but lacking histidine and tryptophan (“SD/glu-HT”). To identify yeast transformants with positive interaction, the transformants were screened on SD medium with galactose but without histidine, tryptophan, and leucine (“SD/gal-HTL”). Yeast colonies with positive interaction grow in this medium. A yeast strain transformed with p53 as bait and large antigen T as prey was used as a positive control. […] Yeast cell cultures were grown overnight in the SD/glu-HT medium. The cells then were washed once with water and resuspended in water. 10 μl of yeast cell suspension (OD₆₀₀=0.2) was dropped on SD/gal-HTL plates. As a control, the same yeast suspension was dropped on SD/gal-HT plates with leucine.

Data set [6] concerns the target B2. Description: yeast two-hybrid (LexA system), HrpN bait, apple cDNA prey clone.

This is an account of results in patent publication US20090044296A1 (CORNELL RESEARCH FOUNDATION, published 2009).

In data set [1], “HrpN as applied to plants (Messenger, Eden Bioscience; 15 ug/ml of HrpN) (from UniProt Q01099 1-403)” had a decrease in root growth of the AtHIPM T-DNA mutant line (few AtHIPM transcripts) after treatment with 15 ug/ml of HrpN of 6%, a root growth of the wild-type 10 days after treatment with 15 ug/ml of HrpN of 9% and a top growth of the wild-type plants one week after spraying with 15 ug/ml of HrpN of 10%.

B1: AtHIPM, 52 amino acid fragment orthologous to the original HIPM prey clone (other)
chain: NDKWSMRILWGCAIGSAIGLYMVAVERQTQNRARAMAESLRAAESQGDGDNV
As for B1, the binding result in data set [2] is “no binding”; in data set [3] it was “binds”.

Consider B2, for which the binding result in data set [2] is “binds”.

B3: HIPM (HrpN-interacting protein from Malus), original yeast two-hybrid clone with the 53 C-terminal amino acids (other)
chain: GDRWSMRILWACAIGSAVSLYMVAVDRQLKNRERALAEELKAMEAESGSGEIV
notes: Residues 8-60 are worked out from that; also called pB42AD-HIPM; pAD-HIPM
For the molecule B3, the binding result in data set [2] is “no binding”; in data set [4], “no binding”; in data set [5], “binds”; in data set [6], “binds”.
